# According to publication doi:10.1101/2021.09.17.460839:
# Numbering of substitutions follows the chain as printed.
# Assays:
# [1] = molecular target: T1, Rv0792c R49A R49A (Mycobacterium tuberculosis) (UniProt O86331); experiment: ALISA
# T1 sequence: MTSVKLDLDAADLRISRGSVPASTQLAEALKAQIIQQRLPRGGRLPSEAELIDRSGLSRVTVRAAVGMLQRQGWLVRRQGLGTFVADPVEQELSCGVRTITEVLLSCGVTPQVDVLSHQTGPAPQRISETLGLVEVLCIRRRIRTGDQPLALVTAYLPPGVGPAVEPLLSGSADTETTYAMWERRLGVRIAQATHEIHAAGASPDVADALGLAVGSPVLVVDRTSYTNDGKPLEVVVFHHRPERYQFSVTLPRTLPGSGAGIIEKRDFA
# [2] = molecular target: T2, Rv0792c G80D G80D (Mycobacterium tuberculosis) (UniProt O86331); experiment: ALISA
# T2 sequence: T1 sequence with A49R, G80D
sequence,measurement,setting,value
TCTAGTCATTCGTCATAATCCCATCTGTTTCTTCCTCCTTCCGT [Rv0792c_2 aptamer (printed Rv0729c_2)],Kd,[1],74 nM
same,Kd,[2],120 nM
